# According to paper PMC13477270:
# Biological target: miniTRIM37 RING–B-box-2–hcc (human | T. thermophilus) (UniProt O94972)
# Assay: SEC-MALS
substance,measurement,value
miniTRIM37 RING–B-box-2–hcc (from UniProt O94972 1-158; O94972 214-254),stoichiometry N,2
